In patent US20110250165A1:

Experiments:
CXCR4 (Jurkat) (human) [1] = target: CXCR4 (Jurkat) (human) (UniProt P61073); experiment: FACS binding; Jurkat cells, % positive
CF2ThCXCR4 (human) [2] = target: CF2ThCXCR4 (human) (UniProt P61073); experiment: FACS binding; CF2ThCXCR4 cells, % positive
CF2ThCXCR4 (human) [3] = target: CF2ThCXCR4 (human) (UniProt P61073); experiment: FACS binding; CF2ThCXCR4 cells, MFI
CXCR4 (Jurkat) (human) [4] = target: CXCR4 (Jurkat) (human) (UniProt P61073); experiment: FACS binding; Jurkat cells, MFI
4442 CXCR2/CXCR4 chimera = experiment: FACS on 293T cells expressing CXCR4 variants
[5] = target: 2444b CXCR2/CXCR4 chimera (human) (UniProt P25025); experiment: FACS on 293T cells expressing CXCR4 variants
ΔN25-CXCR4 (human) = ΔN25-CXCR4 (human) (UniProt P61073); experiment: FACS on 293T cells expressing CXCR4 variants
2442 CXCR2/CXCR4 chimera = experiment: FACS on 293T cells expressing CXCR4 variants
[6] = target: human CXCR4 (wild type) (human) (UniProt P61073); experiment: FACS on 293T cells expressing CXCR4 variants
ΔN31-CXCR4 (human) = ΔN31-CXCR4 (human) (UniProt P61073); experiment: FACS on 293T cells expressing CXCR4 variants

CXCR4 (Jurkat) (human), sequence (P61073 whole entry): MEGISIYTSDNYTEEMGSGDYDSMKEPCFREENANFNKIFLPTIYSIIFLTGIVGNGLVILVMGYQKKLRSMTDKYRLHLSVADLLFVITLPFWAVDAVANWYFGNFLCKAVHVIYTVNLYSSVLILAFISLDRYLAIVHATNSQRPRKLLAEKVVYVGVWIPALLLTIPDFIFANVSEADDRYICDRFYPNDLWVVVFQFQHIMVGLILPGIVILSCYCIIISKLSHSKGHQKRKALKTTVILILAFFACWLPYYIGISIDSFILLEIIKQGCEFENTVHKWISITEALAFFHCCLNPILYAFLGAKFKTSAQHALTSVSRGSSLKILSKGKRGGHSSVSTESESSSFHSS
CF2ThCXCR4 (human), sequence (P61073 whole entry): as above
2444b CXCR2/CXCR4 chimera (human), sequence (P25025 other isoform, or with tags, fused parts or gaps mutant limits assumed): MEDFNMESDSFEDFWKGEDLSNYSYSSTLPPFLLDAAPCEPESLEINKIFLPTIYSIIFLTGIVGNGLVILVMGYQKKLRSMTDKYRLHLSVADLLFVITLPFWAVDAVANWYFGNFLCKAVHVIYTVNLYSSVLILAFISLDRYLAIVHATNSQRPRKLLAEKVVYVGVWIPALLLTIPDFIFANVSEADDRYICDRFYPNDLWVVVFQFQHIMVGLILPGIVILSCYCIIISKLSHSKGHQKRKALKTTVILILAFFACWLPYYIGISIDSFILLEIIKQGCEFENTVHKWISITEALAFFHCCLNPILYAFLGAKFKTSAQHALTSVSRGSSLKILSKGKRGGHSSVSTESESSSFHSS
human CXCR4 (wild type) (human), sequence (P61073 whole entry): as the sequence (P61073 whole entry) above

12G5
EC50 (CXCR4 (Jurkat) (human) [1]): 0.06 µg/mL | EC50 (CF2ThCXCR4 (human) [2]): 0.005 µg/mL | EC50 (CF2ThCXCR4 (human) [3]): 0.7 µg/mL | EC50 (CXCR4 (Jurkat) (human) [4]): 16.9 µg/mL

murine monoclonal antibody 12G5
binding (+%) (4442 CXCR2/CXCR4 chimera): 103% | binding (+%) [5]: 70.1% | binding (+%) (ΔN25-CXCR4 (human)): 69.2% | binding (+%) (2442 CXCR2/CXCR4 chimera): 85.8% | binding (+%) [6]: 100% | binding (+%) (ΔN31-CXCR4 (human)): 55.4%
